According to patent US20160271157A1, “BETA-CATENIN” (UCL BUSINESS PLC, priority 2013, published 2016):

B1: Wnt5A: Recombinant Wnt peptide purchased from R&D systems (protein, UniProt P41221 62-380, looked up)
Protein Wnt-5a: IIGAQPLCSQLAGLSQGQKKLCHLYQDHMQYIGEGAKTGIKECQYQFRHRRWNCSTVDNTSVFGRVMQIGSRETAFTYAVSAAGVVNAMSRACREGELSTCGCSRAARPKDLPRDWLWGGCGDNIDYGYRFAKEFVDARERERIHAKGSYESARILMNLHNNEAGRRTVYNLADVACKCHGVSGSCSLKTCWLQLADFRKVGDALKEKYDSAAAMRLNSRGKLVQVNSRFNSPTTQDLVYIDPSPDYCVRNESTGSLGTQGRLCNKTSEGMDGCELMCCGRGYDQFKTVQTERCHCKFHWCCYVKCKKCTEIVDQFVCK
B2: Wnt9B: Recombinant Wnt peptide purchased from R&D systems (protein, UniProt O14905 23-357, looked up)
Protein Wnt-9b: SYFGLTGREVLTPFPGLGTAAAPAQGGAHLKQCDLLKLSRRQKQLCRREPGLAETLRDAAHLGLLECQFQFRHERWNCSLEGRMGLLKRGFKETAFLYAVSSAALTHTLARACSAGRMERCTCDDSPGLESRQAWQWGVCGDNLKYSTKFLSNFLGSKRGNKDLRARADAHNTHVGIKAVKSGLRTTCKCHGVSGSCAVRTCWKQLSPFRETGQVLKLRYDSAVKVSSATNEALGRLELWAPARQGSLTKGLAPRSGDLVYMEDSPSFCRPSKYSPGTAGRVCSREASCSSLCCGRGYDTQSRLVAFSCHCQVQWCCYVECQQCVQEELVYTCKH

How the values were obtained:
[1] = system: PC3 prostate cancer cell line; experiment: Live [Ca2+]i imaging (Fluo4/FuraRed ratio) after addition of Wnt ligand; type: cell-based; conditions: PC3 cells; for intracellular calcium mobilization ([Ca2+]i release) in response to Wnt ligand: 100 ng/ml Wnt ligand peptide, ratio of Fluo4/Fura Red; for dependence of time constants (dwell time) on Wnt ligand concentration / co-operativity: three concentrations of each Wnt ligand, first-order fit; for rise and fall time of [Ca2+]i release: Wnt peptide 100 ng/ml
Protocol: The imaging protocol was developed in the inventor's laboratory and has been described in detail, elsewhere (Wang at al., (2010) PLoS ONE 5, e10456). Briefly, 100000-200000 PC3, MCF7, 253J or Cos 7 cells were plated on 35 mm FluoroDish (WPI) and grown for 48 h; calcium indicators Fluo-4 (Invitrogen) and FuraRed (Invitrogen) at 1 ng/ml were added to FluoroDish containing only 1 ml of culture medium and incubated for 15-20 min at 37° C. The culture medium was removed and washed (×2) and replaced with 1 ml PBS. Live cell calcium Imaging was performed on an Olympus FluoView FV 1000 confocal microscope (Olympus KeyMed) equipped with a 20× dry objective (numerical aperture=0.75). Calcium indicators were excited with an argon laser line (488 nm) and emissions recorded in the green channel (500-560 nm) for Fluo-4 and red channel (600-700 nm) for FuraRed after addition of vehicle control (PBS) or Wnt X (30-600 ng/ml). Images were acquired every 1.1 or 2.2 seconds for up to 600-800s; image and data acquisition was performed using FluoView 1000 software (Olympus, UK). Fluorescent intensity was measured and data exported as a tab delimited file for further analysis using a spreadsheet. All imaging experiments were performed in duplicate; intracellular calcium at 100 ng/ml was measured in at least 3-12 different passages (passage numbers 25 to 37) of cell line for each Wnt ligand. Wnt 11 was tested in at least 5 different passages at 3 different concentrations. To test if the Wnt activated calcium release was from [Ca^2+]i stores, in some cases PC3 cells, loaded with calcium dyes, were incubated with 1-5 μM of thapsigargin (Sigma, UK), resuspended in dimethyl sulfoxide (DMSO), for 20 min at 37° C., prior to addition of Wnt ligand and live calcium imaging (as described above).
The experiments were performed using 35 mm, glass bottom, FluoroDish containing 1 ml PBS, at 37° C., to which ligands were added at desired concentration. In a static, non-superfusing assay system there is a lag time before the start of a response, in this case an increase in the intensity of the Fluo4 signal due to the release of free calcium. To measure the diffusion constant under these conditions we used Pontamine Sky Blue (Sigma Aldridge), which fluoresces in the red spectrum with 488 nm excitation, using standard practice for adding ligands; the diffusion constant was measured to be 23.3±2.1 μm·s^−1 (means±S.E.M, n=8). The calcium wave, in response to Wnt ligands, travelled across the FluoroDish.
After image acquisition, regions of interest (ROI) were drawn over individual PC3 cells (up to 25) in a single frame and calcium intensity measurements were made using FluoView 1000 software (Olympus, UK). The measurements were exported as a tab delimited file into a spreadsheet for further analysis and Fluo4/Fura Red ratios were calculated. The waveform, a product of the ratio of Fluo4 and FuraRed over the period of measurement was used to measure the kinetics of the activation of [Ca^2+]i release in PC3 cells, in response to different Wnt ligands. The time constants (rise, dwell and fall times) were calculated by first fitting the Fluo4/FuraRed ratio to a single Gaussian function (Origin Lab Corp., MA); a lower (10%) and upper (90%) amplitude thresholding method was then used to calculate the time constants (s). Statistical significance was calculated using Mann Whitney U test.

[2] = system: β-catenin translocation to the nucleus; experiment: β-catenin immunocytochemistry, MCF7; type: cell-based, human; conditions: MCF7 breast cancer cell line
Protocol: (§1) Immunostaining was performed in two different laboratories, independently with the experimenter blind to the identity of the treatment. Either cells used in FluoroDish, post [Ca^2+]i experiments using dyes (see above) or grown in 8 well chamber glass slides (Lab Tek II, Nunc) were used. For Wnt ligand treatment, the culture medium replaced with PBS (without calcium) at 37° C. The experiments were replicated for Wnt ligand or vehicle control as described for [Ca^2+]i measurements. Briefly, Wnt ligands were added and chamber slides incubated at 37° C. for up to 20 min. Chamber wells were washed 3× with 0.5 ml PBS and cells were fixed with 0.5 ml 4% formalin for 30 min at 4° C. Cells were washed 3× with ice cold PBS and stored in 0.5 ml PBS at 4° C. for immunostaining. In some experiments PC3 cells were treated with thaspsigargin as described above.
(§2) For immunostaining cells were washed twice for 5 minutes in TBST (20 mM Tris pH 7.4, 0.9% NaCl, 0.1% Tween 20, Sigma). Cells were then incubated in 20% normal goat serum (NGS)/TBST for 30 min at room temperature, the chambers were drained and cells were incubated with mouse anti-β-catenin (ab22656, Abcam, UK) at 1:500 dilution in NGS/TBST overnight at 4° C. […]
(§3) Fluorescence immunocytochemical staining for β-catenin expression in cell lines was imaged using Olympus Fluoview 1000 Confocal Microscope (Olympus KeyMed) mounted on an Olympus IX81 inverted microscope using a 20×0.7 NA or 40×1.0 NA dry objective with a zoom of ×3.4′,6-diamidino-2-phenylindole (DAPI, nuclear counterstain) was excited at 405 nm with an emission of 415-500 nm; Cy3 (β-catenin label) signal was excited at 561 nm with an emission spectrum between 570-670 nm. […]
(§4) Nuclear co-localization of β-catenin was calculated by importing FV files for untreated, control or treated cells, into colocalization plugin of Fiji software (http://fiji.sc/Fiji) for Cy3 (β-catenin) and DAPI (nuclear) signals. […] Statistical significance between untreated and treated cells was calculated using Mann Whitney U test.

[3] = system: β-catenin translocation to the nucleus; experiment: β-catenin immunocytochemistry, 253J; type: cell-based, human; conditions: 253J bladder cancer cell line
Protocol: as §1, §2, §3, §4

Row | Molecule | time for thapsigargin-evoked calcium transient to decline to baseline ([1]; thapsigargin 5 μM final concentration) | intracellular calcium mobilization ([Ca2+]i release) in response to Wnt ligand [1] | dependence of time constants (dwell time) on Wnt ligand concentration / co-operativity [1] | β-catenin translocation into the nucleus after Wnt treatment [2] | β-catenin translocation into the nucleus after Wnt treatment [3] | rise and fall time of [Ca2+]i release [1] | K1/2 (half-maximal concentration), Michaelis-Menten kinetics of dwell time of [Ca2+]i release ([1]; estimated from fit of dwell time vs Wnt concentration)
1 | C/C=C(/C)C(=O)O[C@H]1C(C)=C2[C@H]([C@@H]1OC(=O)CCCCCCC)[C@@](C)(OC(C)=O)C[C@H](OC(=O)CCC)[C@@]1(O)[C@H]2OC(=O)[C@@]1(C)O [thapsigargin, reference compound] | ≤ 120 s | – | – | – | – | – | –
2 | Wnt10B: Recombinant Wnt peptide purchased from R&D systems | – | induce intracellular calcium mobilization | negative co-operativity | β-catenin translocation into the nucleus | β-catenin translocation into the nucleus | – | –
3 | B1 | – | induce intracellular calcium mobilization | classical Michaelis-Menten kinetics | β-catenin translocation into the nucleus | β-catenin translocation into the nucleus | shortest | 67 ng/mL
4 | B2 | – | induce intracellular calcium mobilization | negative co-operativity | β-catenin translocation into the nucleus | β-catenin translocation into the nucleus | slowest | –
